Experimental data as given in patent US20040228866A1, “Suppressor genes” (Ludwig Institute for Cancer Research, priority 2000, published 2004).

Legend:
[1] = test system: Saos-2 cells; test: Apoptosis by flow cytometry (CD20-gated, sub-G1 DNA content) in transfected Saos-2 cells; format: cell-based
Description: Apoptosis was identified by the expression of the co-transfected cell surface marker CD20, as described in Samuels-Lev et al. (Mol. Cell 8:781-94, 2001, herein incorporated by reference).
The number of apoptotic cells was determined using the methods described in Example 6.
Cells (10^6) were plated 24-48 hours prior to transfection in 10 cm plates. Cells were grown in DMEM supplemented with 10% FCS and transfected with 2 μg of a plasmid expressing CD20 as a transfection marker. Increasing amounts of ASPP1 and ASPP2 were transfected (7.5 μg, 15 μg and 25 μg). 36 hours after the transfection, both attached and floating cells were harvested and analysed using flow cytometry as follows. The transfected cells were gated based on the expression of CD20. The percentage of apoptotic cells was measured by the accumulation of cells with a sub-G1 DNA content derived from at least three individual experiments.
The transfected cells were analyzed by flow cytometry as described in Example 6.

[2] = target: T1, p53 (Homo sapiens, UniProt P04637, R181C); test: Transient luciferase reporter assay of p53 transactivation function in Saos-2 cells; format: cell-based; settings: Bax-luc, FIG. 6B
T1 construct: expressed in transfected cells
Description: (§1) The amount of luciferase expression was determined as previously described in Samuels-Lev et al. (Mol. Cell 8:781-94, 2001, herein incorporated by reference).
(§2) The amount of transactivation function was determined as described in Example 4.
(§3) To determine the amount of protein expression, Saos-2 cells (5×10^5) were plated 24 hours prior to transfection in 6 cm dishes. […] To determine the amount of gene activation, after transfection, the cells were lysed in Reporter Lysis Buffer 16-24 hours post-wash and assayed using the Luciferase Assay kit (Promega, Wis.). The fold activation of a particular reporter was determined by the activity of the transfected plasmid above the activity of vector alone.
(§4) The expression level of transfected proteins was detected using 40 μg of the respective lysates using the antibodies V5, DX.5410, DO1, 4A4 and p73. […] Results were derived from at least three independent experiments.

[3] = target: T2, p53 (Homo sapiens, UniProt P04637); test: as above; format: cell-based
T2 construct: expressed in transfected cells
Description: as §1, §2, §3, §4

[4] = target: T3, p73α (Homo sapiens, UniProt O15350); test: Co-immunoprecipitation with p73α (in vitro translated; transfected H1299 and Saos-2 cells); format: binding
T3 construct: expressed in transfected cells; host or cells: H1299 and Saos-2; part of the results from in vitro translation
T3 sequence (O15350 1-636): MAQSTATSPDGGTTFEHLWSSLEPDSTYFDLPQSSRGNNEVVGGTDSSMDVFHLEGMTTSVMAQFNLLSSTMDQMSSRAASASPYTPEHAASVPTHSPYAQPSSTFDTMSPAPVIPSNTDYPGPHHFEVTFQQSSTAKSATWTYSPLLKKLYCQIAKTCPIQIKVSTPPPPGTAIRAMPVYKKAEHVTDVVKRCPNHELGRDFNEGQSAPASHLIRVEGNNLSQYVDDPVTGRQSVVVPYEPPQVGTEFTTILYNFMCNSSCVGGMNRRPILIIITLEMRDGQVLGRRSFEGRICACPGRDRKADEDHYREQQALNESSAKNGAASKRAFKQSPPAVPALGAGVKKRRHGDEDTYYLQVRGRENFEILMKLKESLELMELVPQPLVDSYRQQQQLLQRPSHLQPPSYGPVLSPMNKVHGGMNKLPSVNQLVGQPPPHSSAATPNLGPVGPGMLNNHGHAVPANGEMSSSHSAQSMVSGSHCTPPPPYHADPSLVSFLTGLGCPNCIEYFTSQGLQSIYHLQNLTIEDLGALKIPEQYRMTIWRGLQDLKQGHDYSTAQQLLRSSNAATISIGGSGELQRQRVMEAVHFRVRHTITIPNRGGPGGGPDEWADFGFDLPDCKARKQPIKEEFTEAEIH
Description: V5-tagged ASPP1 and ASPP2 proteins were in vitro translated with cold methionine using the TNT T7 Quick coupled Transcription/Translation System (Promega). Cell lysates were incubated at 30° C. for 1 hour and then immunoprecipitated with anti-V5 antibody on protein G agarose beads.
The agarose beads were added to the binding reactions and incubated on a rotating wheel at 4° C. for 16 hours. The beads were then washed with PBS. The bound proteins were released in SDS gel sample buffer and analysed by 10% SDS-polyacrylamide gel electrophoresis (PAGE). The gels were wet transferred on to Protran nitrocellulose membrane and the resulting blots were first incubated with primary antibody and subsequently with the appropriate secondary HRP conjugated antibody (Dako). The blot was exposed to hyperfilm following the use of ECL substrate solution (Amersham Life Science).
Cells were transfected with 1 μg of p63γ or p73α in the presence or absence of 10 μg of ASPP1 or ASPP2. Cell lysate (1 mg) was immunoprecipitated with an antiASPP1 or ASPP2 antibody (see Example 2 and 7). The immunoprecipitates were separated on an SDS gel and the presence of p63 or p73 on the immunoblots detected by mouse monoclonal antibodies 4A4 (Santa Cruz) and ER-15 (Neomarker) to p63 or p73, respectively. The presence of ASPP1 or ASPP2 was detected with antibodies YX.7 and DX5410, respectively.
In some methods, larger amounts of cell lysate (2 mg) were immunoprecipitated with rabbit antibodies ASPP1.88 or BP77 to ASPP1 and ASPP2, respectively. The expression of ASPP1, ASPP2, p63γ and p73α was detected as described above.

[5] = target: T4, p63γ (Homo sapiens, UniProt Q9H3D4); test: Transient luciferase reporter assay of p63γ transactivation function; format: cell-based; settings: FIG. 14C
T4 construct: expressed in transfected cells; host or cells: Saos-2
T4 sequence (Q9H3D4 1-487 isoform Q9H3D4-5): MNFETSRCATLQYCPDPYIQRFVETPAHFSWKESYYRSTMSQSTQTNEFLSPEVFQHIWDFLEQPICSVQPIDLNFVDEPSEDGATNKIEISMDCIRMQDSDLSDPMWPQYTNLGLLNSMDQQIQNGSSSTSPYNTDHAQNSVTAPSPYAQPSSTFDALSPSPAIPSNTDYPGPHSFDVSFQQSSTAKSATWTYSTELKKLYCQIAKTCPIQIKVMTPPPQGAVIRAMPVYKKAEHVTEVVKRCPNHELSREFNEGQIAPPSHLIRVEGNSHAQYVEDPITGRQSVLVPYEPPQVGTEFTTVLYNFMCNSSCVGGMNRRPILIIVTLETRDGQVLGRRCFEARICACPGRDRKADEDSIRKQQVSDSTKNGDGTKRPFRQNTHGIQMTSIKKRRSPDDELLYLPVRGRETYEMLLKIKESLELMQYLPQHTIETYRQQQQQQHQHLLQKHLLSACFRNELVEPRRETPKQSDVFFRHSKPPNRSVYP
Description: as §3, §4

B1: ASPP2: full length 1128 amino acid protein, SEQ ID NO: 4 (protein, listed as Homo sapiens)
chain: MMPMFLTVYLSNNEQHFTEVPVTPETICRDVVDLCKEPGESDCHLAEVWCGSERPVADNERMFDVLQRFGSQRNEVRFFLRHERPPGRDIVSGPRSQDPSLKRNGVKVPGEYRRKENGVNSPRMDLTLAELQEMASRQQQQIEAQQQLLATKEQRLKFLKQQDQRQQQQVAEQEKLKRLKEIAENQEAKLKKVRALKGHVEQKRLSNGKLVEEIEQMNNLFQQKQRELVLAVSKVEELTRQLEMLKNGRIDSHHDNQSAVAELDRLYKELQLRNKLNQEQNAKLQQQRECLNKRNSEVAVMDKRVNELRDRLWKKKAALQQKENLPVSSDGNLPQQAASAPSRVAAVGPYIQSSTMPRMPSRPELLVKPALPDGSLVIQASEGPMKIQTLPNMRSGAASQTKGSKIHPVGPDWSPSNADLFPSQGSASVPQSTGNALDQVDDGEVPLREKEKKVRPFSMFDAVDQSNAPPSFGTLRKNQSSEDILRDAQVANKNVAKVPPPVPTKPKQINLPYFGQTNQPPSDIKPDGSSQQLSTVVPSMGTKPKPAGQQPRVLLSPSIPSVGQDQTLSPGSKQESPPAAAVRPFTPQPSKDTLLPPFRKPQTVAASSIYSMYTQQQAPGKNFQQAVQSALTKTHTRGPHFSSVYGKPVIAAAQNQQQHPENIYSNSQGKPGSPEPETEPVSSVQENHENERIPRPLSPTKLLPFLSNPYRNQSDADLEALRKKLSNAPRPLKKRSSITEPEGPNGPNIQKLLYQRTTIAAMETISVPSYPSKSASVTASSESPVEIQNPYLHVEPEKEVVSLVPESLSPEDVGNASTENSDMPAPSPGLDYEPEGVPDNSPNLQNNPEEPNPEAPHVLDVYLEEYPPYPPPPYPSGEPEGPGEDSVSMRPPEITGQVSLPPGKRTNLRKTGSERIAHGMRVKFNPLALLLDSSLEGEFDLVQRIIYEVDDPSLPNDEGITALHNAVCAGHTEIVKFLVQFGVNVNAADSDGWTPLHCAASCNNVQVCKFLVESGAAVFAMTYSDMQTAADKCEEMEEGYTQCSQFLYGVQEKMGIMNKGVIYALWDYEPQNDDELPMKEGDCMTIIHREDEDEIEWWWARLNDKEGYVPRNLLGLYPRIKPRQRSLA
Which results are given for B1?
percentage of apoptotic cells, co-expressed with p53 ([1]; Example 11, p53 alone […]%): 30%; effect on apoptotic function of p53 mutants 181L and 181C ([1]; FIG. 6A): failed to enhance the apoptotic function of either p53 mutant; increase in percentage of cells that die of apoptosis with E2F1 ([1]; co-expression with E2F1, FIG. 4B): only an additive increase; apoptotic function of p63γ and p73α ([1]; co-expression, FIG. 15): enhanced the apoptotic function of p63γ and p73α; apoptosis when expressed alone ([1]; no p53 co-expressed): lower level of apoptosis; effect on apoptosis induced by p53H175-L ([1]; transcriptionally inactive, mitochondria-targeted mutant p53, FIG. 9A): failed to enhance the apoptotic function of p53H175-L; transactivation function of mutant p53 181C on the Bax gene promoter [2]: unable to stimulate; transactivation function of p53 on the mdm2 promoter ([3]; FIG. 8C, Ikb even in the presence of ASPP2): very little effect; stimulation of the promoter activity of mdm2 and cyclin G ([3]; co-expression with p53): very modest stimulation; stimulation of the transactivation function of p53 on the Bax promoter ([3]; co-expression with p53, FIG. 8B): about 8 fold; promoter activity of PIG-3 ([3]; transient transfection reporter assay): specifically stimulated; stimulation of the transactivation function of p53 ([3]; versions of ASPP2 co-expressed with p53, FIG. 3): about 7 fold; interaction with p73α in vitro ([4]; in vitro translated proteins, FIGS. 12B and 12C): co-immunoprecipitated; interaction with p73α in vivo ([4]; transfected cells, FIGS. 13B and 13D): co-immunoprecipitated transfected p63γ and p73α; transactivation function of p63γ on the mdm2 promoter [5]: failed to stimulate
